Measurements: paper PMC5157838 (Analytical chemistry, 2015)
“And” between values parts separate entries of the source, which are not always exact repeats. Identical values can stand only once.

Target: the molecule itself
Test: native MS

B1: Glutamate dehydrogenase, purified from bovine liver (enzyme)
chain: not shown
- stoichiometry N: 6 and 12
